Source: the DeepSol protein solubility set

experiment: soluble on expression in E. coli; label from the status in PepcDB or PDB records

Row | Sequence | soluble on expression in E. coli
1 | MSHSIEQLSINTIRTLSIDAIEKANSGHPGMPMGAAPMAYTLWTQFMKHNPNNPTWFNRDRFVLSAGHGSMLLYSLLHLSGYDVTMDDLKNFRQWGSKTPGHPEYGHTAGVDATTGPLGQGIATAVGMAMAERHLAAKYNRDAYNIVDHYTYAICGDGDLMEGVSAEASSLAAHLQLGRLVVLYDSNDISLDGDLNRSFSESVEDRYKAYGWQVIRVEDGNDIEAIAKAIEEAKADEKRPTLIEVRTTIGFGSPNKSGKSASHGSPLGVEETKLTKEAYAWTAEQDFHVAEEVYENFRKTVQDVGETAQAEWNTMLGEYAQAYPELANELQAAMNGLLPEGWEQNLPTYELGSKAATRNSSGAVINAIAESVPSFFGGSADLAGSNKTYMNNEKDFTRDDYSGKNIWYGVREFAMGAAMNGIALHGGLKTYGGTFFVFSDYLRPAIRLAALMQLPVTYVFTHDSIAVGEDGPTHEPIEQLAALRAMPNVSVIRPADGNESVAAWRLALESTNKPTALVLTRQDLPTLEGAKDDTYEKVAKGAYVVSASKKETADVILLATGSEVSLAVEAQKALAVDGVDASVVSMPSMDRFEAQTAEYKESVLPKAVTKRFAIEMGATFGWHRYVGLEGDVLGIDTFGASAPGEKIMEEYGFTVENVVRKVKEML | not soluble
2 | MGSDKIHHHHHHMKTLQTHRVLQALIGHFTPFLESGITELMINTEQELWLYKVNNTREKRGHALFDKAFLLRFCEQLASFRGLFFDEEHPTLNCSIPFTRYRVSANHFSITTNNQITLNIRVPRLKPLSLEDFTFKASDPKSLKDLALKGHNILISGETSSGKTSLLNALLDCVNKDERVVSVEDSQELDLKAFSNCVGLLVGKQENTRFNYEDALNMAMRLNPDRLIVGEIDTRNAALFLRLGNTGHKGMLSTIHANSAQNTLEALSLNLSMRYMYSLDKDLMRAYFKSAIDVIVHVNRINNERQIAEVLWTKEL | not soluble
3 | MGSDKIHHHHHHAELAELFEVSVRTIYRDIETINRAGIPIVTSQGSGGGIGIMETYRLEREWLKEEELFAIASALQSVSSMYEPVSHSTAYQKIKHLIPEQSTQAFKHQTEKWFIDMTAWGHTEDQKTLREKISAAIDRLLTISFTYTSASGETLLRETEPYTLVCKAGHWYLYAYCLVRNDFRFFKLNRMKDLAILHQTFIRKDIQLDTLPWDKSWYQKDRLTELVILVQPSARQRIGEWFGYDVLHCCEEDEICQAVISLPEDQWLIGFLLQFGKDIEVLQPLHIRDKVKETIHHMQKIYET | not soluble
4 | MRTGKQYLESLNDGRVVWVGNEKIDNVATHPLTRDYAERVAQFYDLHHRPDLQDVLTFVDADGVRRSRQWQDPKDAAGLRVKRKYHETILREIAAGSYGRLPDAHNYTFTTYADDPEVWEKQSIGAEGRNLTQNIHNFLKLLREKDLNCPLNFVDPQTDRSSDAAQARSPNLRIVEKTDDGIIVNGVKAVGTGIAFGDYMHIGCLYRPGIPGEQVIFAAIPTNTPGVTVFCRESTVKNDPAEHPLASQGDELDSTTVFDNVFIPWEQVFHIGNPEHAKLYPQRIFDWVHYHILIRQVLRAELIVGLAILITEHIGTSKLPTVSARVAKLVAFHLAMQAHLIASEETGFHTKGGRYKPNPLIYDFGRAHFLQNQMSVMYELLDLAGRSSLMIPSEGQWDDSQSGQWFVKLNNGPKGNPRERVQIGRVIRDLYLTDWGGRQFMFENFNGTPLFAVFAATMTRDDMSAAGTYGKFASQVCGIEFGGAEPTAYAATADYAKALDKGLAPEPAAAESATS | soluble
5 | MKLIKTIDAVGQVLCHDITQIIPGEFKGRKFKKGHIVKEEDIPVLLSLGKDNLYVWEKSEGMVHENEGALFLKELTAGENLDFSEIKEGKIDFIAACDGLLKIDVDALFDLNCVGEIMMATLHNNFIVNKGLKVAGTRVIPLVIDEKKLEDAKKVVGNRKIVNVVPFKPKKVGIVTTGNEVFYSRIVDKFGPVIEEKVKGFGCEVIGQTICPDDKEIIKSAIKEFISQGAELICCTGGMSVDPDDVTPTAIKETGADLVTYGSPILPGAMFLLAYYGEVPIMGIPGCAMYHKTTVFDIVLSRVLIDEKLDKYDIARYGHGGLCMNCDVCTYPACNFAKI | soluble
6 | MAHHHHHHMSTNSAKILSRVREAMKLHSINALIVPSSDPHNSEYVMDSYKCRGFLTNFNGSAGTCLITMEEAYLWTDGRYWLEAGHCLYPEWQLMRDGHPGVPSLEDFVRLNLQPDLLVGMNDNLATVAEWERRRKAINLVPIPEIVRPLMPQNSDAKAEMLSIRPEQFCGQTREEKVMALVEELKGQKCEAMILSALDEVAWLTNLRGSDVPYNPVFYSYALVRSAPDPTVALFVDSAKVSSPVEAELTQSGRSVVSVSLHPYEALEDYVRALPAGTAFLVDEYQTSQRLYSLLESCKMKVNRVKCGPAQRLKAVKNAVEIEGFRRCHVRDGVALTRYLAWLHDMIVVKGDTTITECSGADVVEGFRREQEHFVQLSFPTISSVGPNGAVVHYTPPKEGSATIVPDQLYLVDSGAQYLDGTTDVTRTVCFNPPSDEERQAYTLVLKGHLALHNAVWPTGTTGHRLDALARVHLWRYGLDYAHGTGHGVGSFLNVHEGPQGIGYRPTPTEATLAAGMIMSNEPGYYKAGKYGIRIENLEVIVRAPTRHSQEGFLTFEALTMVPLCRDLIDVSMLTADEVRLVNDYHRTVRDALTPHLRRVNDSCALAYVERHTAELCALEGGC | soluble
7 | MGSDKIHHHHHHMGNKTSQKVLLELLKDRDRWVSGNEIADSLGVTRETIWKNINLLKKRGHQIQSQKNLGYKYESSSKLDEVVINFYKNKSVDHVAVEEQVDSTQMYAKNYLATHQVEKAFAVISEQQTQGYGRRGRSFYSPKEQGLYFSIVIPKPTFEINQVGLITTGVAYVIAQTFKDFFPEREFKLKWVNDILMNRRKVAGIITEAITEVESASTQAFVIGVGINLTTPEFPEELQQKAGAIVAKNEPNIDRNLIAAQLINTIVDNWQNYLDGSFLSEYRRMSIVIGKPVTLQVGTKQVKGIATDINEYGNIVVKLDDGQVKAFNNGEITKVNLDW | not soluble
8 | MNKVVLLCRPGFEKECAAEITDKAGQREIFGFARVKENAGYVIYECYQPDDGDKLIRELPFSSLIFARQWFVVGELLQHLPPEDRITPIVGMLQGVVEKGGELRVEVADTNESKELLKFCRKFTVPLRAALRDAGVLANYETPKRPVVHVFFIAPGCCYTGYSYSNNNSPFYMGIPRLKFPADAPSRSTLKLEEAFHVFIPADEWDERLANGMWAVDLGACPGGWTYQLVKRNMWVYSVDNGPMAQSLMDTGQVTWLREDGFKFRPTRSNISWMVCDMVEKPAKVAALMAQWLVNGWCRETIFNLKLPMKKRYEEVSHNLAYIQAQLDEHGINAQIQARQLYHDREEVTVHVRRIWAAVGGRRDER | soluble
9 | MSLGEHLEFDEKKIEKIMMIKRSYLNGEISLEEAKIKMQASFDQVTAQEFAICEQYLQKYGISDDVLAERMEEIIEIFDGVLVTTKLNLPSGHPIRTYLDEVDAIRRILGEMREMSKKKFIKNQWAQYYDQLGEINIHFARKQNQLFTALEKKGFDKPSKVMWTLDNNIRDMIKKAKEYLETDQDNAFLEIQDEVIEMVEDMMVKEEEILFPTTMDLLTDEDFIEMRKGDDEIGYCLIDSPLPYGKKENKDTDTSSNNELLKDLANVLQKHGMLTKASNDEVLDVSQGKLTLEQINLLFKHLQVDLSFVDENEIVKFYSDTKHRVFPRSAGVIGREVQNCHPRESVHTVEEIIRAFRAGEHDEAEFWLEMGGKFIYIIYNAVRDEDGNFKGVLEMMQDVTKIRSLTGSQRLLSWGDKEEEPKSKVTEHTGIENEYGITKETIIGDLVKEYPFIKEFLFNLSPKFSKLQNPIVFKTMSSIATVEMISEKGGFEVQDLIDRIVKEIQSRKEGHHHHHH | soluble
10 | MATKARVMYDFAAEPGNNELTVTEGEIITVTNPNVGGGWLEGKNNKGEQGLVPTDYVEILPNDGKDPFSC | soluble
11 | MGSDKIHHHHHHMREAMYWKPLGDGRVRCELCPLRCIIDEGKRGSCKIRINKGGKLYTLNYGKVSSIALDPIEKKPLFHFWPGSCALSIGTVGCNMHCKHCQNWEISQADESFPYLQDATPEAIVSLAKHYECESIAYTYNEPTIWYEFVLDTAKLARKEGLNNILVTNGYINEEPFRELAPYIDAMNIDIKAFDDKFYMKIASVPSGEPSRRIAEIAKKEFKIHVELTYLIIPTLNDKEEEIREFARWVVENLGDDTPVHFSRFFPHYKLLNLPPTPIETLEKAYKIAKEEGLKFVYLGNVPGHPGENTYCPSCGKLLIERWGFDIIRYDIVDGKCKYCGEKIPIVGKYQKKKYRGMWW | not soluble
12 | MGHHHHHHSHMSFVECPYHSPAERLVAEADEGGPSAITGMGLCFRCLLFSFSGRSGVEGGRVDLNVFGSLGLQPWIGSSRCWGGPCSSALRCGWFSSWPPPSKSAIPIGGGSRGAGRVSRWPPPHWLEAWRVSPRPL | not soluble
13 | MKTFKAVRFQIVNEHGRIIEYELEDGVIINKEESGTGWLLEIVISNEHYETFKEYQDNEQLLDIRVVITRPANDPALFESTVKSIKNFKTTMSIVFECHIYTLRQQYAESLLEQLIDDGLSGEELKKSFNRMMQSKPKLKDEKLEELEHHHHHH | soluble
14 | MKLERILPFSKTLIKEHIKQDSIVIDATCGNGNDTLFLAQQVSNGHVFGFDIQDTAIQSTFEKVKAFNNVTLIQDGHENIKKHIDIQFKGQIDAAIFNLGYLPKGDKSIVTRPETTIKAINAIFDYLSVEGIIVLVIYHGHAEGQVERDALLDFLEHFDQEKAHILKYQFMNQVNHAPFICAIEKRLEHHHHHH | not soluble
15 | ATQSPGDSRRLSIQRAIQSLVHAAQCRNANCSLPSCQKMKRVVQHTKGCKRKTNGGCPICKQLIALAAYHAKHCQENKCPVPFCLNIKQKLRQQQLQHRLQQAQMLRRRMASMQ | soluble
16 | SGNLLKVLTCTDLEQGPNFFLDFENAQPTESEKEIYNQVNVVLKDAEGILEDLQSYRGAGHEIREAIQHPADEKLQEKAWGAVVPLVGKLKKFYEFSQRLEAALRGLLGALTSTPYSPTQHLEREQALAKQFAEILHFTLRFDELKMTNPAIQNDFSYYRRTLSRMRINNVPAEGENEVNNELANRMSLFYAEATPMLKTLSDATTKFVSENKNLPIENTTDCLSTMASVCRVMLETPEYRSRFTNEETVSFCLRVMVGVIILYDHVHPVGAFAKTSKIDMKGCIKVLKDQPPNSVEGLLNALRYTTKHLNDETTSKQIKSMLQ | soluble
17 | MAEHNELGKAGENAAVAYLEEHGYLIRHRNWRKGHFELDIVAAKENELVIVEVKTRSNTLFAQPEEAVDLPKIKRTVRAADAYMKLFQIDVPVRFDIITVIGENGNFRIDHIKEAFYPPLF | not soluble
18 | MGSDKIHHHHHHMTRTTLEAGVTRRDVLKVAGLTGLGAALYASGLERWLPRALTAEATNQVPFYGKYQAGILTPPQNHVQIVAFDVQTTRRDELIDLLKRWTRACARLTAGLPLGDSDSLYVPPEDTGEAEGLSASHLTFTFGCGHGLFADDRFEIGHKRPNLLRELPAFDLDQLDPKWAGGDLVVQICADDQQVVFHALRNLTRIGRGIVKIRWTQTGFQRSKAADATGGTPRNLFGFKDGTGNPDVSQPAIRNKHLFYQWQDGSPWMTNGSFLVVRRIQMHLEVWDRTILKEQERTFGRDRASGAPLGSKDEFASVTPSKRTARGEASLPKDSHTAVAHGSGEAQLLRRSYSYQAGINETTGALDAGLLFLSYQRSPEQFITIQRRLAASDRLNEYITHRGSALFACFGGIQKGGYIGDALFA | not soluble
19 | GMIGDGIENSPLLTDLAFPYRLLGAGKESRECLFLLHGSGVDETTLVPLARRIAPTATLVAARGRIPQEDGFRWFERIDPTRFEQKSILAETAAFAAFTNEAAKRHGLNLDHATFLGYSNGANLVSSLMLLHPGIVRLAALLRPMPVLDHVPATDLAGIRTLIIAGAADETYGPFVPALVTLLSRHGAEVDARIIPSGHDIGDPDAAIVRQWLAGPIAIAQAD | soluble
